B2: RbcL (Rubisco large subunit) from Synechocystis sp. PCC6803, unfolded, isolated from inclusion bodies (natural protein, UniProt P54205 1-470, looked up)
chain: MVQAKAGFKAGVQDYRLTYYTPDYTPKDTDLLACFRMTPQPGVPAEEAAAAVAAESSTGTWTTVWTDNLTDLDRYKGRCYDLEAVPNEDNQYFAFIAYPLDLFEEGSVTNVLTSLVGNVFGFKALRALRLEDIRFPVALIKTFQGPPHGITVERDKLNKYGRPLLGCTIKPKLGLSAKNYGRAVYECLRGGLDFTKDDENINSQPFMRWRDRFLFVQEAIEKAQAETNEMKGHYLNVTAGTCEEMMKRAEFAKEIGTPIIMHDFFTGGFTANTTLARWCRDNGILLHIHRAMHAVVDRQKNHGIHFRVLAKCLRLSGGDHLHSGTVVGKLEGERGITMGFVDLMREDYVEEDRSRGIFFTQDYASMPGTMPVASGGIHVWHMPALVEIFGDDSCLQFGGGTLGHPWGNAPGATANRVALEACVQARNEGRNLAREGNDVIREACRWSPELAAACELWKEIKFEFEAMDTL
notes: Ribulose-1,5-bisphosphate carboxylase/oxygenase large subunit (RbcL), Synechocystis sp; PCC6803; used denatured/unfolded; Used as an unfolded protein diluted from GdnHCl; also called unfolded RbcL; denatured RbcL peptide; source: E. coli BL21 (DE3), purified from inclusion bodies, solubilized in 4 M GdnHCl

Test [1] has as its target T1, RbcL (Rubisco large subunit) from Synechocystis sp. PCC6803, unfolded, isolated from inclusion bodies (Synechocystis sp. PCC6803, UniProt P54205 1-470).
T1 chain: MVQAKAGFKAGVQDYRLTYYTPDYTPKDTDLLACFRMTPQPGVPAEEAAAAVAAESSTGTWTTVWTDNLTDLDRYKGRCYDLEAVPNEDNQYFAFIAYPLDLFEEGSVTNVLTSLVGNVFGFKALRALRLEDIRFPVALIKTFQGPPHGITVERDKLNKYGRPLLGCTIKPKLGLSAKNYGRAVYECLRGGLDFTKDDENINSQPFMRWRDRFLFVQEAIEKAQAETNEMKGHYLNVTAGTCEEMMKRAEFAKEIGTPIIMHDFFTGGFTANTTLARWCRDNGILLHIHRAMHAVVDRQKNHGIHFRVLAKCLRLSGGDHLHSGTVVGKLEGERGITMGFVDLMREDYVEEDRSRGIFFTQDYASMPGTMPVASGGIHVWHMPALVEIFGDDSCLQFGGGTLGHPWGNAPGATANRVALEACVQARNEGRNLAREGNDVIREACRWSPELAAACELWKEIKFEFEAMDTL
Briefly: MST; with ATP.

For test [2], the target named is B2. Briefly: MST; His-tagged chaperone labelled with RED-tris-NTA (4 µM or 200 nM) and unfolded RbcL in PBS-T (0.1% Tween 20), with ATP; Monolith NT.115 pico; 1:1 binding model. The settings on record: both partners purified.
Test [3] deals with T2, DnaK2 from Synechocystis sp. PCC6803, His-tagged (Synechocystis sp. PCC6803, UniProt P22358 1-636, RED-tris-NTA dye on the His-tag (MST only)).
T2 construct: Hsp70 chaperone DnaK2, Synechocystis sp; PCC6803; gene amplified from total DNA with primers Fwdnak2 (NdeI-ATG) and Rvdnak2 (stop codon), cloned into pET16b; source: E. coli Lemo21, purified (Ni-NTA HisTrap, Superdex 200); not shown: His-tag, N-terminal, kept
T2 sequence (P22358 whole entry): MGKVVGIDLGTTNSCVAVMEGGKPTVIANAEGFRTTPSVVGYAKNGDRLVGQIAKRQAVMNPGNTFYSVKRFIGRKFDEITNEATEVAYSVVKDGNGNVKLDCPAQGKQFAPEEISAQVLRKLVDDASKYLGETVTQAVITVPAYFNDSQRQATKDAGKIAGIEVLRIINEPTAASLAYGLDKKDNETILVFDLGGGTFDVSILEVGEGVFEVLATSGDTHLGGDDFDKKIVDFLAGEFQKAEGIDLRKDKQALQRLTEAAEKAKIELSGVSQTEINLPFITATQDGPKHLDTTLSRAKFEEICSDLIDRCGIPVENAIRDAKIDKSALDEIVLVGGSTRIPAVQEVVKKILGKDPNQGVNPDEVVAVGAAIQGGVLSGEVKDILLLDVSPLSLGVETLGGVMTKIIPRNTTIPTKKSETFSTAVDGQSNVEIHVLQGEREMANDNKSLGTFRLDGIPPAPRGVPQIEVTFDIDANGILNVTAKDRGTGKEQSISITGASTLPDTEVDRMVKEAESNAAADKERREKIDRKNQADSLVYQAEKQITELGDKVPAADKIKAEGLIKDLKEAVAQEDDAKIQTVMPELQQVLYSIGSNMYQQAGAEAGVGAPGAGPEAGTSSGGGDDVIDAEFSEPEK
Described as above. The settings on record: both partners purified.

Test [4] addresses T3, DnaK2 together with DnaJ Sll1384 (both tested chaperones, with ATP) in the MST titration (Synechocystis sp. PCC6803, UniProt P22358 1-636; P74157 1-314).
T3 construct: DnaK2, Synechocystis sp; PCC6803, as the chain of m3; DnaJ Sll1384, Synechocystis sp; PCC6803, as the chain of m2; also called DnaK + DnaJ; source: E. coli Lemo21, each purified (Ni-NTA; DnaK2 also Superdex 200), mixed
Described as above. The settings on record: both partners purified.

T3 sequence (P22358 whole entry, one chain of several): as the sequence (P22358 whole entry) above

B1: DnaJ Sll1384 from Synechocystis sp. PCC6803, His-tagged (natural protein, UniProt P74157 1-314, looked up)
chain: MSSFPIKQGLFNYDVVDHHAILGCPLDATPEEIRKSYLKIAFQLHPDTSKATNEEEQALAAKLFSKFVNPAYEVLSRENDRKEHLLIIQQTVSNLASIGQPSFSSAESQKLQGAKQNLELVYRKVVTPLSKGLYEDFKTVFRKIAQVSEYNLIFLMVKGENASARPVFQTIASSKETVPPVVSGRSPQGPTPTPPINNPPAEELSPFEKSLRRAQENFDRRQYEKAIAELKSALKTDPKNAQAHCLLGMAYLKNNMMTMAKVHIGSAVKLDPNDPKVMAAKKELAKHTSSGSSQEGAKSSQGGFLGGLFGGKKK
modifications: RED-tris-NTA dye on the His-tag (MST only)
notes: DnaJ homolog Sll1384 (J domain plus C-terminal TPR domain), Synechocystis sp; PCC6803; gene amplified from total DNA with primers Fwsll1384 (NdeI-ATG) and Rvsll1384 (stop codon), cloned into pET16b; also called DnaJ Sll384; source: E. coli Lemo21, purified (Ni-NTA HisTrap, dialysis); not shown: His-tag, N-terminal, kept
Turning to B1, the Kd (usually the concentration at which binding is half-saturated) came out at 1.36 nM in test [1] and 1360 ± 2760 nM in test [2].
As for B2, the results for the Kd in test [3] and in test [4] were 6050 ± 3410 nM and 31.1 ± 1.17 nM, respectively.
